Data from patent publication US20210032664, “ENGINEERED MEGANUCLEASES WITH RECOGNITION SEQUENCES FOUND IN THE HUMAN BETA-2 MICROGLOBULIN GENE” (Precision Biosciences, Inc., published 2021).
Substitutions are numbered along the chain they refer to. Names may count otherwise.

Assays:
Assay in all cases: cell_activity; human T cells, 1 ug mRNA, day 3
Conditions in all cases: tags: N-terminal SV40 NLS
[1] = target: T1, B2M 13-14x.93 QQR66 (Artificial Sequence)
T1 chain: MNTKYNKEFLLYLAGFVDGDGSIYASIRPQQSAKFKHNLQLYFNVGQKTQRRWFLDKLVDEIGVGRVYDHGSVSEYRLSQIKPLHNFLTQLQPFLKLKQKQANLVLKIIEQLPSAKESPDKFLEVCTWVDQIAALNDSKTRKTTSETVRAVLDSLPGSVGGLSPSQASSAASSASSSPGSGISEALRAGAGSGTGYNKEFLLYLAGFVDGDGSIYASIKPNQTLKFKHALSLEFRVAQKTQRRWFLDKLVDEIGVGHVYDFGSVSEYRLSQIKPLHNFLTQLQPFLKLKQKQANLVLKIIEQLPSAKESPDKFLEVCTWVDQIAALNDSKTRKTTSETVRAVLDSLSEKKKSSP
Description: (§1) To test these variants of B2M 13-14x.93, donor human T cells were stimulated with anti-CD3 and anti-CD28 antibodies for 3 days, then electroporated with mRNA encoding a given B2M 13-14 meganuclease (1 μg) using the Amaxa 4D-Nucleofector (Lonza) according to the manufacturer's instructions. At 3 days post-electroporation, cells were stained with an antibody recognizing β-2 microglobulin (BD Biosciences) and analyzed by flow cytometry.

[2] = target: T2, B2M 13-14x.93 QQY66 (Artificial Sequence)
T2 chain: T1 chain with R66Y
Description: as §1

[3] = target: T3, B2M 13-14x.93 EQY66 (Artificial Sequence)
T3 chain: T1 chain with R66Y
Description: as §1

[4] = target: T4, B2M 13-14x.93 EE (Artificial Sequence)
T4 chain: T1 chain with R66Y, Q80E, Q271E
Description: as §1

[5] = target: T5, B2M 13-14x.93 QQK66 (Artificial Sequence)
T5 chain: T1 chain with R66K
Description: as §1

[6] = target: T6, B2M 13-14x.93 EQ (Artificial Sequence)
T6 chain: T1 chain with R66Y, Q80E
Description: as §1

[7] = target: T7, B2M 13-14x.93 EER66 (Artificial Sequence)
T7 chain: T1 chain with Q80E, Q271E
Description: as §1

B1: B2M 13-14 recognition sequence (dsDNA)
DNA 1: CTATCTCTTGTACTACACTGAA
DNA 2: TTCAGTGTAGTACAAGAGATAG
B1 gave an activity [1] of 5.05 % B2M-negative, an activity [2] of 19.2 % B2M-negative and an activity [3] of 21.4 % B2M-negative. The activity [4] was 18.3 % B2M-negative, the activity [5] was 2.64 % B2M-negative and the activity [6] was 5.13 % B2M-negative. The activity [7] was 7.07 % B2M-negative.
